T1: SWIP-MUT-HA (human WASHC4 P1019R) (human, UniProt Q2M389 1-1173, P1019R)
T1 construct: SWIP (WASHC4), human, with the patients' variant c.3056C>G, p.Pro1019Arg, made by site-directed mutagenesis of pmCAG-SWIP-WT-HA; The mutation occurs in human patients (Ropers et al., 2011); also called SWIP^P1019R; MUT SWIP; source: HEK293T, transfected (pmCAG-SWIP-MUT-HA), in lysate
T1 sequence (looked up): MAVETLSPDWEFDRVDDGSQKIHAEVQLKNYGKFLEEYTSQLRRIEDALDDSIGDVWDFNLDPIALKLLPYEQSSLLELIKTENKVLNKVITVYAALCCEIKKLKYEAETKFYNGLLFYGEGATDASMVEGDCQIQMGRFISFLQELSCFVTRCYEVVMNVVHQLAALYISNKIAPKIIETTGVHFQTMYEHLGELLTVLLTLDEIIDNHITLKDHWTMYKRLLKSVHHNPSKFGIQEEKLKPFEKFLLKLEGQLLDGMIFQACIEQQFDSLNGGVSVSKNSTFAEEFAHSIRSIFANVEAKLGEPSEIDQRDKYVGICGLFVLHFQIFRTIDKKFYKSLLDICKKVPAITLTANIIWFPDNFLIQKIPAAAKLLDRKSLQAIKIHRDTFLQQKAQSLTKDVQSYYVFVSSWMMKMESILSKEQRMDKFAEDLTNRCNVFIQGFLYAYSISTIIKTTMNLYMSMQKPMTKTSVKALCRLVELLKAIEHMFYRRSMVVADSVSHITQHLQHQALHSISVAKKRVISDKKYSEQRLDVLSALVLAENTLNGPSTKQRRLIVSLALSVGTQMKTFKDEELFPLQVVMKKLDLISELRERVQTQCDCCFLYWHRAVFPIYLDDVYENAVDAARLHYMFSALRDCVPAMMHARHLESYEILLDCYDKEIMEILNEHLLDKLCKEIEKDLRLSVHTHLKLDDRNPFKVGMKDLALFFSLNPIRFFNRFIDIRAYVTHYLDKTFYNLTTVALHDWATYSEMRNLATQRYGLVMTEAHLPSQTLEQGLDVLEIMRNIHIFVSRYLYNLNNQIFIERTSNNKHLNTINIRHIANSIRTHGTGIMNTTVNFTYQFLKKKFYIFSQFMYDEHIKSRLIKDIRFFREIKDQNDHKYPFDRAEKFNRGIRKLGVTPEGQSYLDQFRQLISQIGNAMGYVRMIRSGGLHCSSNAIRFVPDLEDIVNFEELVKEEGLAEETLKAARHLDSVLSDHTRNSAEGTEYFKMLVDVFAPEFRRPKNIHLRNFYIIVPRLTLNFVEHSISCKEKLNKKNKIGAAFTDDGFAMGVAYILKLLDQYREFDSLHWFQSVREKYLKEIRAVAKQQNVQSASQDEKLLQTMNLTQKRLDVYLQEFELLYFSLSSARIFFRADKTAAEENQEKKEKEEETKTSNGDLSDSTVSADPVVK


Molecular target: T1, SWIP-MUT-HA (human WASHC4 P1019R)
Test: co-IP; HEK293T transfected with SWIP-WT-HA or SWIP-MUT-HA for three days; lysis buffer 25 mM HEPES, 150 mM NaCl, 1 mM EDTA, 1% Nonidet P-40, pH 7.4; anti-HA agarose beads 2 hr at 4°C; blots for WASH1, Strumpellin and HA; band intensities normalised to WT
Settings: partners not purified

Binder	amount co-immunoprecipitated, % of WT SWIP
WASH1 (WASHC1), human (natural protein, human (endogenous in HEK293T), UniProt A8K0Z3 1-465, looked up, WASH1 (WASHC1), endogenous in HEK293T cells, detected with an anti-WASH1 C-terminal antibody; Human cells carry several near-identical WASH paralogues; source: endogenous, HEK293T lysate) MTPVRMQHSLAGQTYAVPFIQPDLRREEAVQQMADALQYLQKVSGDIFSRISQQVEQSRSQVQAIGEKVSLAQAKIEKIKGSKKAIKVFSSAKYPAPGRLQEYGSIFTGAQDPGLQRRPRHRIQSKHRPLDERALQEKLKDFPVCVSTKPEPEDDAEEGLGGLPSNISSVSSLLLFNTTENLYKKYVFLDPLAGAVTKTHVMLGAETEEKLFDAPLSISKREQLEQQVPENYFYVPDLGQVPEIHVPSYLPDLPGIANDLMYSADLGPGIAPSAPGTIPELPTFHTEVAEPLKVDLQDGVLTPPPPPPPPPPAPEVLASAPPLPPSTAAPVGQGARQDDSSSSASPSVQGAPREVVDPSGGWATLLESIRQAGGIGKAKLRSMKERKLEKQQQKEQEQVRATSQGGHLMSDLFNKLVMRRKGISGKGPGAGEGPGGAFVRVSDSIPPLPPPQQPQAEEDEDDWES	41.4 % of WT
Strumpellin (WASHC5), human (natural protein, human (endogenous in HEK293T), UniProt Q12768 1-1159, looked up, Strumpellin (WASHC5), endogenous in HEK293T cells, detected with an anti-Strumpellin antibody; source: endogenous, HEK293T lysate) MLDFLAENNLCGQAILRIVSCGNAIIAELLRLSEFIPAVFRLKDRADQQKYGDIIFDFSYFKGPELWESKLDAKPELQDLDEEFRENNIEIVTRFYLAFQSVHKYIVDLNRYLDDLNEGVYIQQTLETVLLNEDGKQLLCEALYLYGVMLLVIDQKIEGEVRERMLVSYYRYSAARSSADSNMDDICKLLRSTGYSSQPGAKRPSNYPESYFQRVPINESFISMVIGRLRSDDIYNQVSAYPLPEHRSTALANQAAMLYVILYFEPSILHTHQAKMREIVDKYFPDNWVISIYMGITVNLVDAWEPYKAAKTALNNTLDLSNVREQASRYATVSERVHAQVQQFLKEGYLREEMVLDNIPKLLNCLRDCNVAIRWLMLHTADSACDPNNKRLRQIKDQILTDSRYNPRILFQLLLDTAQFEFILKEMFKQMLSEKQTKWEHYKKEGSERMTELADVFSGVKPLTRVEKNENLQAWFREISKQILSLNYDDSTAAGRKTVQLIQALEEVQEFHQLESNLQVCQFLADTRKFLHQMIRTINIKEEVLITMQIVGDLSFAWQLIDSFTSIMQESIRVNPSMVTKLRATFLKLASALDLPLLRINQANSPDLLSVSQYYSGELVSYVRKVLQIIPESMFTSLLKIIKLQTHDIIEVPTRLDKDKLRDYAQLGPRYEVAKLTHAISIFTEGILMMKTTLVGIIKVDPKQLLEDGIRKELVKRVAFALHRGLIFNPRAKPSELMPKLKELGATMDGFHRSFEYIQDYVNIYGLKIWQEEVSRIINYNVEQECNNFLRTKIQDWQSMYQSTHIPIPKFTPVDESVTFIGRLCREILRITDPKMTCHIDQLNTWYDMKTHQEVTSSRLFSEIQTTLGTFGLNGLDRLLCFMIVKELQNFLSMFQKIILRDRTVQDTLKTLMNAVSPLKSIVANSNKIYFSAIAKTQKIWTAYLEAIMKVGQMQILRQQIANELNYSCRFDSKHLAAALENLNKALLADIEAHYQDPSLPYPKEDNTLLYEITAYLEAAGIHNPLNKIYITTKRLPYFPIVNFLFLIAQLPKLQYNKNLGMVCRKPTDPVDWPPLVLGLLTLLKQFHSRYTEQFLALIGQFICSTVEQCTSQKIPEIPADVVGALLFLEDYVRYTKLPRRVAEAHVPNFIFDEFRTVL	54.8 % of WT

— paper PMC7984842, “Genetic disruption of WASHC4 drives endo-lysosomal dysfunction and cognitive-movement impairments in mice and humans” (eLife, 2021)
